This experiment deals with T1, Pox4 (Candida tropicalis, UniProt P06598).
T1 construct: made in house; host or cells: E. coli Rosetta II BL21, pET26b; crude cell lysate (10 ug per reaction)
The class given is biochemical, Candida strain ATCC20336. The following applies: native isozyme. The method, then:
To express an enzyme, a colony from each transformation of Rosetta cells was used to start a 5 ml overnight culture of LB containing the antibiotics kanamycin (to select for pET26b) and chloramphenicol (to select for a second plasmid found in Rosetta II cells that mediates improved translation of eukaryotic proteins expressed in E. coli) grown at 37° C. The next morning, the overnight culture was used to seed 30 ml of LB containing kanamycin and chloramphenicol to an OD600 reading of 0.1. The 30 ml cultures were grown at 37° C. for 2 hours and then placed on ice for 10 minutes. To induce expression, isopropyl-beta-D-thiogalactopyranoside (IPTG) was added to the culture to a final concentration of 0.1 mM. In some cases induction was performed using Novagen Overnight Express Autoinduction System 1 (CAT#71300-3). The cells were then shaken at 15° C. overnight to express the acyl CoA oxidase.
To test the activity of the acyl CoA oxidase, cells from the overnight induction were pelleted at 1046×g at 4° C. in 50 ml conical tubes. The cell pellets were resuspended in 1 ml of 50 mM KPO4, pH 7.6, 50 μM FAD buffer and then transferred to a 2 ml centrifuge tube. A Misonix Sonicator 3000 (QSonica, Newtown, Conn.) was used to lyse the cells, which were sonicated at a power setting of 2 for 2 pulses of 20 seconds each. […] The spectrophotometer was set to read for 5 minutes at 500 nm, 30° C. […]

This is an account of results in patent US9765346B2, “Biological methods for preparing a fatty dicarboxylic acid” (Verdezyne, Inc., priority 2011, dated 2017).

B1: Pox4p: native acyl-CoA oxidase isozyme of Candida strain ATCC20336 (protein, UniProt P06598 2-709, looked up)
Acyl-coenzyme A oxidase 4: TFTKKNVSVSQGPDPRSSIQKERDSSKWNPQQMNYFLEGSVERSELMKALAQQMERDPILFTDGSYYDLTKDQQRELTAVKINRIARYREQESIDTFNKRLSLIGIFDPQVGTRIGVNLGLFLSCIRGNGTTSQLNYWANEKETADVKGIYGCFGMTELAHGSNVAGLETTATFDKESDEFVINTPHIGATKWWIGGAAHSATHCSVYARLIVDGQDYGVKTFVVPLRDSNHDLMPGVTVGDIGPKMGRDGIDNGWIQFSNVRIPRFFMLQKFCKVSAEGEVTLPPLEQLSYSALLGGRVMMVLDSYRMLARMSTIALRYAIGRRQFKGDNVDPNDPNALETQLIDYPLHQKRLFPYFVPPMSSPSVPSRLNTPSRPPWSNWTSPLKRTTPRLIFKSIDDMKSLFVDSGSLKSTATWLGAEAIDQCRQACGGHGHSSYNGFGKAYNDWVVQCTWEGDNNVLGMSVGKPIVKQVISIEDAGKTVRGSTAFLNQLKEYTGSNSSKVVLNTVADLDDIKTVIKAIEVAIIRLSQEAASIVKKESFDYVGAELVQLSKLKAHHYLLTEYIRRIDTFDQKELAPYLITLGKLYAATIVLDRFAGVFLTFNVASTEAITALASVQIPKLCAEVRPNVVAYTDSFQQSDMIVNSAIGRYDGDIYENYFDLVKLQNPPSKTKAPYSDALEAMLNRPTLDERERFQKSDETAAILSK
Take B1: the substrate specificity entry is given as “broad substrate specificity”.
